Source: the supplement of paper PMC10126150
± gives the standard deviation of the averaged measurements.

Tested on: ATP
Assay: switch fluorescence ratio, 500 uM ATP over buffer (Cy3 cluster intensity, sum of 5 cycles each) (fold (ratio)); higher = stronger signal-on switching upon ATP binding; sequences stand for … in TCGTCGGCAGCGTCAGATGTGTATAAGAGACAGTTTTTTTTTTTTTTTTTTTTTTTTT…TC
Details: aptamer strand: ATP DNA aptamer (quencher-CACCTGGGGGAGTATTGCGGAGGAAGG + anchor), 100 nM annealed; ATP concentration: 500 uM
Summary of the method: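 The quencher-labelled ATP aptamer, at 100 nM, was annealed to Cy3-labelled switching-strand clusters on a modified Illumina MiSeq flow-cell. The clusters were imaged in selection buffer, then after 15 min with 500 uM ATP at 22 °C, and this buffer/ATP cycle ran five times with NaOH stripping and re-annealing between runs. Per-cluster fluorescence ratios, summed target-cycle over summed buffer-cycle Cy3 intensity, were averaged per switch-domain sequence. Clusters outside 100-1000 RFU were excluded.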
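Note: ATP exposure 15 min at 22 °C before imaging.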

Row | Sequence | switch fluorescence ratio
1 | CTGTTTAAGT | 1.005 ± 0.0073
2 | CTGTTTCCGA | 1.03 ± 0.052
3 | CTGTTTTTAT | 1.01 ± 0.034
4 | CTTAAAACGT | 1.056 ± 0.0033
5 | CTTAAATGGG | 0.955 ± 0.019
6 | CTTAAATTCT | 1.01 ± 0.011
7 | CTTACAGCTT | 1.04 ± 0.023
8 | CTTACAGTTT | 1 ± 0.011
9 | CTTACGGTCG | 1.02 ± 0.038
10 | CTTAGACGTC | 0.948 ± 0.043
11 | CTTAGAGTTG | 0.983 ± 0.016
12 | CTTAGCGGCC | 1.007 ± 0.0038
13 | CTTAGCTATT | 1.019 ± 0.0077
14 | CTTAGGCGGG | 1 ± 0.059
15 | CTTAGGGAGC | 0.969 ± 0.085
16 | CTTAGGGGCG | 0.976 ± 0.024
17 | CTTAGGGTTT | 0.988 ± 0.019
18 | CTTAGTAGT | 0.973 ± 0.024
19 | CTTAGTATAG | 0.998 ± 0.032
20 | CTTAGTGCGG | 0.978 ± 0.0012
21 | CTTAGTTGGT | 0.965 ± 0.012
22 | CTTATAGTGC | 0.974 ± 0.0023
23 | CTTATATATG | 0.987 ± 0.017
24 | CTTATATTTT | 0.997 ± 0.066
25 | CTTATCAATT | 1 ± 0.018

Row | Sequence | switch fluorescence ratio
26 | CTTATCGAAG | 0.968 ± 0.015
27 | CTTATCGGGG | 1 ± 0.013
28 | CTTATGATAG | 0.97 ± 0.013
29 | CTTATGTATT | 0.993 ± 0.019
30 | CTTATTCGTC | 1.04 ± 0.025
31 | CTTCAGGTTG | 1.016 ± 0.0024
32 | CTTCCTGCCA | 2.69 ± 0.36
33 | CTTCCTTTTT | 3.13 ± 3
34 | CTTCGCACGG | 3.54 ± 0.37
35 | CTTCGTACAG | 1.02 ± 0.014
36 | CTTCGTCTCG | 1.08 ± 0.072
37 | CTTCGTGGCC | 1.04 ± 0.036
38 | CTTCTAGGCA | 1.04 ± 0.032
39 | CTTCTATAAC | 1.07 ± 0.02
40 | CTTCTGGGGC | 1.04 ± 0.055
41 | CTTGAAAAGC | 1.05 ± 0.021
42 | CTTGAAAAGG | 0.9995 ± 0.0038
43 | CTTGAAAGAT | 0.99786 ± 0.00087
44 | CTTGAAATTC | 1.04 ± 0.017
45 | CTTGACTTTT | 1.015 ± 0.0014
46 | CTTGGGGGGA | 0.997 ± 0.029
47 | CTTGGGGTGC | 1.07 ± 0.094
48 | CTTGGGTTTG | 1.06 ± 0.14
49 | CTTGGGTTTT | 0.9548 ± 0.0091
50 | CTTGGTCGGC | 1.068 ± 0.0026

Row | Sequence | switch fluorescence ratio
51 | CTTGTAAAAT | 0.993 ± 0.014
52 | CTTGTAAGAA | 1.02 ± 0.05
53 | CTTGTAGGTG | 1.36 ± 0.48
54 | CTTGTATACG | 0.9888 ± 0.001
55 | CTTGTATAGT | 0.9947 ± 0.0062
56 | CTTGTATGAG | 0.989 ± 0.012
57 | CTTGTGAAA | 1.009 ± 0.0082
58 | CTTGTGCAAG | 1.03 ± 0.024
59 | CTTGTGGCTT | 1.034 ± 0.0061
60 | CTTGTGGTGT | 0.973 ± 0.019
61 | CTTGTTGGGT | 0.999 ± 0.033
62 | CTTGTTGTAT | 1.01 ± 0.02
63 | CTTGTTTGGC | 1.02 ± 0.045
64 | CTTGTTTGGG | 1 ± 0.039
65 | CTTTAAAGTT | 1.09 ± 0.18
66 | CTTTAAGGGC | 0.986 ± 0.022
67 | CTTTAATCAA | 0.991 ± 0.013
68 | CTTTAATGTC | 1 ± 0.025
69 | CTTTAATTCG | 1 ± 0.028
70 | CTTTAGCCGG | 1.02 ± 0.049
71 | CTTTATGGTT | 0.99 ± 0.065
72 | CTTTATTCGT | 0.9896 ± 0.0096
73 | CTTTCAATGG | 1.07 ± 0.015
74 | CTTTGGCTTC | 0.9876 ± 0.0039
75 | CTTTGGGGGG | 0.982 ± 0.025

Row | Sequence | switch fluorescence ratio
76 | CTTTGGGGGT | 0.979 ± 0.019
77 | CTTTGGGTTG | 1 ± 0.02
78 | CTTTGTAGCC | 1.05 ± 0.012
79 | CTTTGTCGCT | 1.01 ± 0.029
80 | CTTTTAAGGC | 1.1 ± 0.15
81 | CTTTTAAGGT | 0.984 ± 0.03
82 | CTTTTACTAA | 1.024 ± 0.0071
83 | CTTTTAGTGT | 0.963 ± 0.032
84 | CTTTTATTGG | 1 ± 0.029
85 | CTTTTGAAGT | 0.983 ± 0.01
86 | CTTTTGAGAC | 1.02 ± 0.053
87 | CTTTTGAGGG | 0.974 ± 0.018
88 | CTTTTGTAAT | 1.01 ± 0.014
89 | CTTTTTTGAT | 0.9831 ± 0.0061
90 | CTTTTTTGCC | 1.02 ± 0.019
91 | GAAAAAAAGG | 0.982 ± 0.051
92 | GAAAAAACGT | 1.05 ± 0.038
93 | GAAAAAGCAA | 1.14 ± 0.054
94 | GAAAAAGCAT | 1 ± 0.016
95 | GAAAAAGTGA | 0.975 ± 0.054
96 | GAAAAAGTGG | 0.998 ± 0.014
97 | GAAAAATGCC | 1.05 ± 0.05
98 | GAAAAATTAA | 0.993 ± 0.026
99 | GAAAAGCAGG | 0.989 ± 0.025
100 | GAAAAGGGCG | 1.01 ± 0.022
